What was measured:
[1] = system: ABF1 (Arabidopsis thaliana); assay: cell_activity; conditions: yeast lacZ; no activity without ABRE
[2] = system: ABF2 (Arabidopsis thaliana); assay: cell_activity; conditions: yeast lacZ

## Em1a trimer reporter
[1]
  activity (fold over control): 6
[2]
  activity (fold over background): 2
